The values that follow are results of earlier work, collected in PMC11497281.

The target in this data set is Asp27 (UniProt position 27, WNLPADLAWFK).

As for “Dihydrofolate reductase (DHFR) (Escherichia coli)”, the pKa result is recorded as “approximately 6.5”.
